{
  "source": "paper PMC12804361",
  "key": {"VcCap5 [1]": {"biological_target": "VcCap5", "test": "AUC; sedimentation velocity, apo VcCap5 at 0.8 mg/ml, 20 mM Tris-HCl pH 7.5, 200 mM NaCl, 55,000 rpm, 20 °C; c(s) fit in SEDFIT; monomer to dimer"}, "VcCap5 [2]": {"biological_target": "VcCap5", "test": "AUC; sedimentation velocity, VcCap5 with 3'2'-cGAMP, 0.8 mg/ml, 20 mM Tris-HCl pH 7.5, 200 mM NaCl, 55,000 rpm, 20 °C; c(s) fit in SEDFIT; dimer to tetramer"}},
  "data": [
    {"substance": "VcCap5 (enzyme)", "values": [
      {"measurement": "stoichiometry N", "setting": "VcCap5 [1]", "result": 2},
      {"measurement": "stoichiometry N", "setting": "VcCap5 [2]", "result": 4}
    ]}
  ]
}
